{"source": "IntAct's records for PubMed 27462807", "parents": {"B1": {"name": "TP53-binding protein 1 (Homo sapiens), Q12888 (parent)", "chain": "MDPTGSQLDSDFSQQDTPCLIIEDSQPESQVLEDDSGSHFSMLSRHLPNLQTHKENPVLDVVSNPEQTAGEERGDGNSGFNEHLKENKVADPVDSSNLDTCGSISQVIEQLPQPNRTSSVLGMSVESAPAVEEEKGEELEQKEKEKEEDTSGNTTHSLGAEDTASSQLGFGVLELSQSQDVEENTVPYEVDKEQLQSVTTNSGYTRLSDVDANTAIKHEEQSNEDIPIAEQSSKDIPVTAQPSKDVHVVKEQNPPPARSEDMPFSPKASVAAMEAKEQLSAQELMESGLQIQKSPEPEVLSTQEDLFDQSNKTVSSDGCSTPSREEGGCSLASTPATTLHLLQLSGQRSLVQDSLSTNSSDLVAPSPDAFRSTPFIVPSSPTEQEGRQDKPMDTSVLSEEGGEPFQKKLQSGEPVELENPPLLPESTVSPQASTPISQSTPVFPPGSLPIPSQPQFSHDIFIPSPSLEEQSNDGKKDGDMHSSSLTVECSKTSEIEPKNSPEDLGLSLTGDSCKLMLSTSEYSQSPKMESLSSHRIDEDGENTQIEDTEPMSPVLNSKFVPAENDSILMNPAQDGEVQLSQNDDKTKGDDTDTRDDISILATGCKGREETVAEDVCIDLTCDSGSQAVPSPATRSEALSSVLDQEEAMEIKEHHPEEGSSGSEVEEIPETPCESQGEELKEENMESVPLHLSLTETQSQGLCLQKEMPKKECSEAMEVETSVISIDSPQKLAILDQELEHKEQEAWEEATSEDSSVVIVDVKEPSPRVDVSCEPLEGVEKCSDSQSWEDIAPEIEPCAENRLDTKEEKSVEYEGDLKSGTAETEPVEQDSSQPSLPLVRADDPLRLDQELQQPQTQEKTSNSLTEDSKMANAKQLSSDAEAQKLGKPSAHASQSFCESSSETPFHFTLPKEGDIIPPLTGATPPLIGHLKLEPKRHSTPIGISNYPESTIATSDVMSESMVETHDPILGSGKGDSGAAPDVDDKLCLRMKLVSPETEASEESLQFNLEKPATGERKNGSTAVAESVASPQKTMSVLSCICEARQENEARSEDPPTTPIRGNLLHFPSSQGEEEKEKLEGDHTIRQSQQPMKPISPVKDPVSPASQKMVIQGPSSPQGEAMVTDVLEDQKEGRSTNKENPSKALIERPSQNNIGIQTMECSLRVPETVSAATQTIKNVCEQGTSTVDQNFGKQDATVQTERGSGEKPVSAPGDDTESLHSQGEEEFDMPQPPHGHVLHRHMRTIREVRTLVTRVITDVYYVDGTEVERKVTEETEEPIVECQECETEVSPSQTGGSSGDLGDISSFSSKASSLHRTSSGTSLSAMHSSGSSGKGAGPLRGKTSGTEPADFALPSSRGGPGKLSPRKGVSQTGTPVCEEDGDAGLGIRQGGKAPVTPRGRGRRGRPPSRTTGTRETAVPGPLGIEDISPNLSPDDKSFSRVVPRVPDSTRRTDVGAGALRRSDSPEIPFQAAAGPSDGLDASSPGNSFVGLRVVAKWSSNGYFYSGKITRDVGAGKYKLLFDDGYECDVLGKDILLCDPIPLDTEVTALSEDEYFSAGVVKGHRKESGELYYSIEKEGQRKWYKRMAVILSLEQGNRLREQYGLGPYEAVTPLTKAADISLDNLVEGKRKRRSNVSSPATPTASSSSSTTPTRKITESPRASMGVLSGKRKLITSEEERSPAKRGRKSATVKPGAVGAGEFVSPCESGDNTGEPSALEEQRGPLPLNKTLFLGYAFLLTMATTSDKLASRSKLPDGPTGSSEEEEEFLEIPPFNKQYTESQLRAGAGYILEDFNEAQCNTAYQCLLIADQHCRTRKYFLCLASGIPCVSHVWVHDSCHANQLQNYRNYLLPAGYSLEEQRILDWQPRENPFQNLKVLLVSDQQQNFLELWSEILMTGGAASVKQHHSSAHNKDIALGVFDVVVTDPSCPASVLKCAEALQLPVVSQEWVIQCLIVGERIGFKQHPKYKHDYVSH"}}, "data": [{"variants_of": "B1", "settings": "with H2BC10, P62807", "values": [{"variant": "K1628C", "effect of a mutation on the interaction": "decreasing interaction"}]}, {"variants_of": "B1", "settings": "with H2BC10, P62807", "remark": "another data set of the same source", "values": [{"variant": "T1609C", "effect of a mutation on the interaction": "with no effect"}]}]}
